The labels stand for the following.
T1: human BASIGIN recombinant protein (human, UniProt P35613-2 22-205, limits assumed)
T1 construct: also called hBASIGIN
T1 sequence (looked up): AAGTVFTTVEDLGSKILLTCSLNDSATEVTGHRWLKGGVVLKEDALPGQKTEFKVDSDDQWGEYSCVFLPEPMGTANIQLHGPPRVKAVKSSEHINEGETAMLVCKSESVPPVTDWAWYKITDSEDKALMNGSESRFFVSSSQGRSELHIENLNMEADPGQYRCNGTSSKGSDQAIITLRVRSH

B1: mouse monoclonal antibody HAb18GC2 (6H8) (antibody, V domains shown)
VH: EVKLEESGGGLVQPGGSMKLSCVASGFTFSNFWMNWVRQSPEKGLEWVAEIRLKSNNYATHYAESVKGRFTISRDDSKSSVYLQMNNLRTEDTGIYYCTSYDYEYWGQGTLVTVSA
VL: NIVMTQSPKSMSMSVGERVTLSCKASENVGTYVSWYQQKPEQSPKLLIYGASNRYTGVPDRFTGSGSATDFTLTISSVQAEDLADYHCGQSYSYPFTFGSGTKLEIK
notes: Mouse monoclonal from hybridoma CCTCC-C200636; also called mouse 6H8; Mouse monoclonal 6H8
B2: chimeric antibody c6H8 (antibody, V domains shown)
VH: B1 VH
VL: B1 VL
notes: Mouse 6H8 variable regions fused to a human constant region of IgG1 isotype; also called chimeric 6H8
B3: humanized antibody HP6H8-3 (antibody, V domains shown)
VH: EVQLVESGGGLVQPGGSLKLSCAASGFTFSNFWMNWVRQAPGKGLEWVAEIRLKSNNYATHYAESVKGRFTISRDDSKNTLYLQMNSLKTEDTAVYYCTSYDYEYWGQGTLVTVSA
VL: DIQMTQSPSSLSASVGDRVTLTCKASENVGTYVSWYQQKPGQAPKLLIYGASNRYTGVPSRFTGSGSGTDFTLTISSLQPDDFATYYCGQSYSYPFTFGSGTKLEIK
notes: Derived from scFv clone 11242; also called WBP229-203; pCI-WBP229-203L/H
B4: humanized antibody HP6H8-2 (antibody, V domains shown)
VH: B3 VH with K89R
VL: B3 VL with S9A, L21I, T22S, A43T, T63S
notes: Derived from scFv clone 11245; also called WBP229-204; pCI-WBP229-204L/H
B5: humanized antibody HP6H8-1 (antibody, V domains shown)
VH: B3 VH with K19R, A49S
VL: B3 VL with S10T, T22S, Q42K, D81E
notes: Derived from scFv clone 11305; also called WBP229-205; pCI-WBP229-205L/H

Positions count from the first letter of the chain named.

For one test, the target named is T1, human BASIGIN recombinant protein. Briefly: SPR (ProteOn XPR36), human BASIGIN amine-coupled on chip, antibody as analyte. The protocol:
The affinity of the antibody was measured with ProteOn XPR36 (Bio-Rad). The GLC chip (Bio-Rad, 1765011) was activated with 0.04 M EDC+0.01 M sulfo-NHS (Bio-Rad). The human BASIGIN was diluted to […] with 10 mM NaAc (pH 4.5) and then injected onto the chip at the rate of 30 μl/min to couple the antigen with the activated chip via amino groups. Finally, the chip were inactivated with 1 M ethanolamine-HCl (Bio-Rad), and when the chip was rotated for 90 degrees, it was washed with a buffer (PBS/0.005% Tween 20) until the baseline was stable. Five cell culture supernatants containing scFv antibody and one negative control were injected on six horizontal channels, respectively, at feeding rate of 30 μl/min. The time for binding was set as 60 s and the time for dissociation was set as 900 s. The data were analyzed using the Kinetic-Langmuir model.
The binding affinity of the three humanized antibodies, the mouse antibody 6H8 and the chimeric antibody c6H8 were also determined by SPR (for detailed steps, please refer to the description in example 6), data were shown in Table 2.
Broadly, the Kd is a measure of binding affinity in units of concentration. Usually koff stands for a measure of how fast the partners let go of each other. A word on the kon: it is a measure of how fast the partners come together. Consider B1, for which the Kd came out at 1.17 nM, the koff is 6.64e-05 s⁻¹ and the kon amounted to 56600 M⁻¹ s⁻¹.

On to B2, for which the Kd amounted to 0.452 nM, the koff stood at 5.81e-05 s⁻¹ and the kon was determined as 128000 M⁻¹ s⁻¹.

For B3, the Kd was found to be 0.102 nM, the koff was determined as 5.44e-05 s⁻¹ and the kon was 531000 M⁻¹ s⁻¹.

As to B4, the Kd amounted to 0.0583 nM, the koff was found to be 3.6e-05 s⁻¹ and the kon was 618000 M⁻¹ s⁻¹.

In the case of B5, the Kd was 0.0905 nM, the koff was determined as 4.96e-05 s⁻¹ and the on-rate (kon) was 548000 M⁻¹ s⁻¹.

For a further test the target is unchanged. Briefly: ELISA, coated human BASIGIN recombinant protein, HRP-labelled goat anti-human light chain constant region secondary antibody, A450. The protocol: 200 ng of human BASIGIN recombinant protein was coated in an ELISA plate and allowed to stand overnight at 4° C. The coated plate was blocked with 0.1% BSA at room temperature for 1 hour. Three antibodies obtained in example 8 along with the parental mouse monoclonal 6H8 and chimeric antibody c6H8 were each prepared into 5 solutions with gradient concentrations of 10, 100, 1,000, 10,000 and 100,000 ng/ml. 100 μl of each solution was added into individual wells and the plate was allowed to stand at room temperature for 1 hour. 100 μl of 1:4,000 diluted horseradish peroxidase-labeled goat anti-human light chain constant region as secondary antibody (Millipore) was added and allowed to stand at room temperature for 1 hour. The plates were then washed with 200 μl of 1×PBS buffer for 3 times, TMB substrate solution (50 μl/well) was added to each well to react for 10 min, and the stopping solution (2 M HCl, 50 μl/well) was added to terminate the reaction. The absorbance at 450 nm was read in an ELISA plate reader.
For orientation: In an ELISA, binding on a coated surface is turned into a signal by an enzyme label.
As a reminder, the EC50 (read off the curve) is the concentration giving half of the maximal effect. For the molecule B1, the “EC50 (read off the curve)” value is roughly 0.5 µg/mL.
